In experiment [1] the target is purified human properdin (human) (UniProt P27918). Put plainly: cell-based or functional assay.
Experiment [2] shares this target. In words: ELISA, preformed C3bBbP on C3b-coated plates incubated with increasing IRAC II; bound properdin detected with anti-properdin antibody. (ELISA stands for enzyme-linked immunosorbent assay.)
The target is the same in experiment [3]. In words: ELISA, preformed C3bBbP on C3b-coated plates incubated with increasing IxAC-B1; bound properdin detected with anti-properdin antibody.

Chain of purified human properdin (human) (P27918 28-469 limits assumed): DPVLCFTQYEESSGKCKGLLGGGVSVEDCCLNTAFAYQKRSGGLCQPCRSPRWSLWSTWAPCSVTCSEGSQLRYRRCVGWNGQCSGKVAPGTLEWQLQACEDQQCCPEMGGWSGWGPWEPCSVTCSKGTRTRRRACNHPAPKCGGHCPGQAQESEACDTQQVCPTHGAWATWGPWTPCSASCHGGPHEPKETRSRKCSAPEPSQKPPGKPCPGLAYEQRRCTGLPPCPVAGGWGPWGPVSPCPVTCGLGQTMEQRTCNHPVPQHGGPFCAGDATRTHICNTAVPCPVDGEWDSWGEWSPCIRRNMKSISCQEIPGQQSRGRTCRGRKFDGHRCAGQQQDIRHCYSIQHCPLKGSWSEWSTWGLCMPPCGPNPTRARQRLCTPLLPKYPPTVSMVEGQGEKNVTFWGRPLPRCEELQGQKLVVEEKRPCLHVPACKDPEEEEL

“recombinant IRAC I-V5His (Ixodes ricinus anticomplement protein I)” showed an inhibition of alternative pathway haemolysis of rabbit red blood cells by human serum in experiment [1] of 85%.
Substance “recombinant IRAC II-V5His (Ixodes ricinus anticomplement protein II)” had an inhibition of alternative pathway haemolysis of rabbit red blood cells by human serum in experiment [1] of 85%. For the same substance, the percent of pre-bound properdin displaced in experiment [2] stood at 50%.
In experiment [1], recombinant IxAC-B1-V5His showed an inhibition of alternative pathway haemolysis of rabbit red blood cells by human serum of 85%. In experiment [3], the percent of pre-bound properdin displaced worked out at 50%.
On to recombinant IxAC-B2-V5His, for which the inhibition of alternative pathway haemolysis of rabbit red blood cells by human serum in experiment [1] was 85%.
Substance recombinant IxAC-B3-V5His came in with an inhibition of alternative pathway haemolysis of rabbit red blood cells by human serum in experiment [1] of 85%.
The same measure, in the same setting: with recombinant IxAC-B4-V5His the figure was 85%; with recombinant IxAC-B5-V5His, 85%.

Source of the values: US20110008351A1.
